Experimental findings from article PMC12677587, “UHRF1 Controls the Timing of RAD51 Removal During DNA Damage Repair Through Suppressing RFWD3” (Advanced Science, 2025) are described below.

The target in one assay is RAD51 (UniProt Q06609). The experiment in a line: co-IP of FLAG-UHRF1 and RAD51-HA. The settings on record: reference: wild type; sites S661.
In the next assay the target is T1, GST-UHRF1 (UniProt Q96T88-1 1-793).
T1 construct: UHRF1; source: E. coli BL21(DE3), purified (Glutathione resin)
T1 sequence (looked up): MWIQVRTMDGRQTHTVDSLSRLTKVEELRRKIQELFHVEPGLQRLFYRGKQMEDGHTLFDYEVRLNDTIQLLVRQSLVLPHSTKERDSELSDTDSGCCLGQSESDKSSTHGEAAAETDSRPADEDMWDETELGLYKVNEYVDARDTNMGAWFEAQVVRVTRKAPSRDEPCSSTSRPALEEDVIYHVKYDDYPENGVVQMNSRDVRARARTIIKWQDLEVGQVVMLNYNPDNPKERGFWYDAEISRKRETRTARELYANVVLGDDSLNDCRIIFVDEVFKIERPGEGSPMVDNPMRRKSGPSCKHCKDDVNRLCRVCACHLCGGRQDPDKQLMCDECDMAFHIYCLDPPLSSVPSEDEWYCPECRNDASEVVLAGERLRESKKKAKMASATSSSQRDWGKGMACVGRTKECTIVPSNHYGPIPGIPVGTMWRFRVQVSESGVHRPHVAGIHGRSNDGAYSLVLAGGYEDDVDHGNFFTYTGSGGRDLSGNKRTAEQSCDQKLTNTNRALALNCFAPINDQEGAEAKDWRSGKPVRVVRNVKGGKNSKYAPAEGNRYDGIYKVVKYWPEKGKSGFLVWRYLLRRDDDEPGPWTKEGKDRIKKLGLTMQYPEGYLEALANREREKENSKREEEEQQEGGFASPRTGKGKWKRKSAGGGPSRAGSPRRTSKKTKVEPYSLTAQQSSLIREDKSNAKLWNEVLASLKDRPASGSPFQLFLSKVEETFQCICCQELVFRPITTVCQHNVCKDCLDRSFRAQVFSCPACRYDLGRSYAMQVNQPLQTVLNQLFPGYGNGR
Briefly: pull-down; His pull-down: purified His-RAD51 on Ni-chelated beads, GST-UHRF1 with increasing amounts of GST-RFWD3; Binding Buffer A (50 mM Tris-HCl pH 7.5-8.0, 50 mM NaCl), washes with 20 mM imidazole; western blotting. To be noted: both partners purified. In general terms: Immunoblotting shows a protein as a band on a membrane.

Assay [1] concerns the target T2, His-UHRF1 (UniProt Q96T88-1 1-793).
T2 construct: UHRF1; last residue R793; source: E. coli BL21(DE3), purified (Ni-NTA agarose)
T2 sequence (looked up): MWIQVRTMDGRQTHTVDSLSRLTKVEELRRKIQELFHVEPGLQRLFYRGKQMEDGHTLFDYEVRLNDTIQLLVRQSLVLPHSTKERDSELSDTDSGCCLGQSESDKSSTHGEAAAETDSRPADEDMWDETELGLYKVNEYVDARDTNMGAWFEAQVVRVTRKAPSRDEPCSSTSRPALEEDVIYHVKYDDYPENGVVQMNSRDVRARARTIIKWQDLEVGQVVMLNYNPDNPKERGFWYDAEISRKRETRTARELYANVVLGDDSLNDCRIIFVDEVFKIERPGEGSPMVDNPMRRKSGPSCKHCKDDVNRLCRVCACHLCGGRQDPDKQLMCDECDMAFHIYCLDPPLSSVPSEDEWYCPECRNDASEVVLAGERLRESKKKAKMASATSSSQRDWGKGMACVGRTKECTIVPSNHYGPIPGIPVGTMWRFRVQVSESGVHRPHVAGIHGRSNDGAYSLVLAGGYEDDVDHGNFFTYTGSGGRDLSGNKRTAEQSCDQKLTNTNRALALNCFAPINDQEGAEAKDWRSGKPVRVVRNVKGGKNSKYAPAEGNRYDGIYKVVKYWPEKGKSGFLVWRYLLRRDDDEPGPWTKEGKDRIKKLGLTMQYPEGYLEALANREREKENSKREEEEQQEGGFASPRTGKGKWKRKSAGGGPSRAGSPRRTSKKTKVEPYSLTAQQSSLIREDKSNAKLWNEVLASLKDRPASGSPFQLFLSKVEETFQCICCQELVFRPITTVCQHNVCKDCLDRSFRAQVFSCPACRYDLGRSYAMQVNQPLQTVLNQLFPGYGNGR
Briefly: pull-down; GST pull-down: GST-RFWD3 on Glutathione resin precipitating His-UHRF1 with His-RAD51 or His-RAD51^R254Q added; His-tagged proteins detected by western blotting. To be noted: both partners purified.

Assay [2] has as its target T2, His-UHRF1. Briefly: pull-down; GST pull-down: purified GST-RFWD3 on Glutathione resin, purified His-tagged UHRF1 proteins, 3 h at 4 °C in BCA buffer (20 mM Tris-HCl pH 7.4, 100 mM NaCl); washes with 300 mM NaCl; western blotting. To be noted: both partners purified.

Consider UHRF1 (from UniProt Q96T88) S661A, for which the “binding against the reference” value with RAD51 is listed as “stronger”.

B1: His-RAD51 (natural protein, UniProt Q06609 1-339, looked up)
chain: MAMQMQLEANADTSVEEESFGPQPISRLEQCGINANDVKKLEEAGFHTVEAVAYAPKKELINIKGISEAKADKILAEAAKLVPMGFTTATEFHQRRSEIIQITTGSKELDKLLQGGIETGSITEMFGEFRTGKTQICHTLAVTCQLPIDRGGGEGKAMYIDTEGTFRPERLLAVAERYGLSGSDVLDNVAYARAFNTDHQTQLLYQASAMMVESRYALLIVDSATALYRTDYSGRGELSARQMHLARFLRMLLRLADEFGVAVVITNQVVAQVDGAAMFAADPKKPIGGNIIAHASTTRLYLRKGRGETRICKIYDSPCLPEAEAMFAINADGVGDAKD
notes: RAD51 recombinase; also called purified RAD51; source: E. coli BL21(DE3), purified (Ni-NTA agarose)
As to B1, the binding result with GST-UHRF1 and with His-UHRF1 [1] was “binds” in each case.

B2: GST-RFWD3 (natural protein, UniProt Q6PCD5 1-774, looked up)
chain: MAHEAMEYDVQVQLNHAEQQPAPAGMASSQGGPALLQPVPADVVSSQGVPSILQPAPAEVISSQATPPLLQPAPQLSVDLTEVEVLGEDTVENINPRTSEQHRQGSDGNHTIPASSLHSMTNFISGLQRLHGMLEFLRPSSSNHSVGPMRTRRRVSASRRARAGGSQRTDSARLRAPLDAYFQVSRTQPDLPATTYDSETRNPVSEELQVSSSSDSDSDSSAEYGGVVDQAEESGAVILEEQLAGVSAEQEVTCIDGGKTLPKQPSPQKSEPLLPSASMDEEEGDTCTICLEQWTNAGDHRLSALRCGHLFGYRCISTWLKGQVRKCPQCNKKARHSDIVVLYARTLRALDTSEQERMKSSLLKEQMLRKQAELESAQCRLQLQVLTDKCTRLQRRVQDLQKLTSHQSQNLQQPRGSQAWVLSCSPSSQGQHKHKYHFQKTFTVSQAGNCRIMAYCDALSCLVISQPSPQASFLPGFGVKMLSTANMKSSQYIPMHGKQIRGLAFSSYLRGLLLSASLDNTIKLTSLETNTVVQTYNAGRPVWSCCWCLDEANYIYAGLANGSILVYDVRNTSSHVQELVAQKARCPLVSLSYMPRAASAAFPYGGVLAGTLEDASFWEQKMDFSHWPHVLPLEPGGCIDFQTENSSRHCLVTYRPDKNHTTIRSVLMEMSYRLDDTGNPICSCQPVHTFFGGPTCKLLTKNAIFQSPENDGNILVCTGDEAANSALLWDAASGSLLQDLQTDQPVLDICPFEVNRNSYLATLTEKMVHIYKWE
notes: RFWD3 (ring finger and WD repeat domain 3); source: E. coli BL21(DE3), purified (Glutathione resin)
In the case of B2, the binding result with His-UHRF1 [2] was “binds”.
